B1: ZNF449 (parent)
chain: QLTGHQRIHSGEEPHKCPECGKRF

Variants of: B1
Experiment: protein stability index of a GFP-peptide fusion (GPS, HEK-293T) (PSI 1-6); higher = more stable
Details: c terminus: a fixed tail appended
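Further: lentivirally expressed fusions sorted by FACS into six bins by GFP to DsRed ratio, PSI derived from sequencing read proportions per bin multiplied by bin number.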

Protein stability index, by site and new letter:
P18: C 3.74 | R 4.4 | F 3.41 | S 4.46 | V 4.55 | W 3.4 | A 3.92 | L 3.92 | M 4.14 | Y 3.64 | N 4.3 | T 3.98 | Q 4.02 | E 4.17 | H 3.61 | K 4.15 | G 4.21 | I 3.88 | D 5.02
H15: P 3.94 | N 4.52 | A 4.68 | T 4.52 | K 3.66 | S 4.06 | Y 4.3 | V 2.18 | E 4.28 | M 3.68 | R 3.76 | I 4.8 | C 5.22 | L 3.65 | F 4.22 | Q 4.31
P14: K 3.98 | R 3.75 | M 4.05 | N 4.49 | Q 4.75 | W 4.5 | Y 4.65 | I 4.5 | G 4.5 | D 4.84 | C 4.22 | V 4.19 | E 4.09 | L 3.7 | A 4.33 | H 3.88 | S 4.88 | F 4.38
S10: C 4.11 | H 4.24 | P 4.47 | L 4.12 | V 4.09 | R 3.55 | N 3.85 | T 4.35 | Q 3.91 | I 3.6 | K 3.87 | Y 3.45 | A 4.01 | W 4.31 | D 4.33 | M 3.36 | E 4.48 | F 4.12
Q1: I 3.3 | C 4.74 | K 3.61 | H 3.69 | P 3.96 | D 3.45 | R 3.87 | V 3.76 | G 4.83 | A 4.5 | E 3.42 | F 2.09 | Y 2.71 | N 4.09 | W 2.03 | L 3.84 | S 4.72 | M 2.5 | T 4.31
C17: S 4.43 | G 3.56 | I 4.4 | T 3.98 | L 4.58 | R 4.36 | F 4.6 | Y 4.26 | M 4.72 | P 4.71 | A 4.4 | Q 4.38 | V 4.76 | W 3.92 | K 5.14 | D 5.48 | N 4.3 | E 4.89 | H 4.17
R7: V 3.78 | Y 4.14 | G 4.56 | C 5.01 | A 4.69 | T 4.74 | L 4.7 | S 4.83 | E 4.08 | F 3.33 | N 3.52 | D 4.85 | P 4.44 | W 3.36 | K 4.31 | I 4.58 | M 4.43 | H 4.78 | Q 4.22
G11: S 4.17 | W 3.76 | T 3.96 | I 3.52 | D 4.5 | M 3.21 | H 4.23 | L 3.87 | K 4.09 | V 3.64 | Q 4.01 | C 4.88 | R 4.14 | A 4.64 | F 3.77 | E 4.75 | Y 3.87 | P 4.25 | N 3.86
E12: C 3.35 | F 2.54 | P 3.48 | T 3.43 | M 3.73 | V 4.17 | Y 3.41 | L 4.05 | I 3.63 | A 5.14 | G 3.99 | R 4.01 | D 4.15 | H 4.05 | K 3.43 | Q 3.29 | S 3.96 | N 4.21 | W 3.99
E13: A 4.21 | R 3.54 | D 4.46 | H 3.62 | M 3.57 | I 3.97 | K 4.59 | W 3.57 | V 3.33 | Y 3.15 | L 2.85 | N 3.42 | F 3.09 | P 4.1 | T 3.39 | Q 3.63 | C 4.11 | G 4.09
I8: D 4.71 | M 4.67 | Q 4.23 | P 3.71 | K 3.63 | L 3.47 | N 4.24 | R 3.75 | H 3.17 | A 4.54 | G 4.59 | W 4.27 | F 3.96 | V 3.63 | C 4.75 | Y 4.53 | S 4.51 | T 4.42 | E 4.5
H5: K 4.46 | V 3.56 | G 4.45 | F 2.94 | N 3.73 | C 4.86 | T 4.08 | Y 2.92 | P 4.48 | I 4.18 | M 3.67 | A 3.17 | Q 3.65 | E 4.56 | S 3.41 | D 4.38 | L 3.45 | W 2.89 | R 4.03
Q6: H 4.16 | P 4.04 | T 3.84 | G 3.44 | C 4.23 | N 3.77 | M 3.68 | R 2.88 | D 4.77 | S 4.24 | K 3.43 | Y 3.97 | L 3.83 | E 3.77 | W 3.05 | F 2.85 | V 3.27 | I 3 | A 4.67
G4: Q 4.7 | I 3.41 | L 3.83 | N 3.42 | D 4.09 | C 4.29 | E 4.38 | Y 3.95 | P 4.14 | M 4.18 | S 4.57 | T 4.43 | A 4.34 | H 3.94 | W 2.78 | F 3.5 | V 3.52 | K 3.48 | R 3.69
K16: Q 4.3 | R 3.41 | W 4.14 | N 4.54 | C 3.84 | S 5.11 | Y 3.61 | A 4.36 | V 4.58 | G 3.97 | M 3.94 | F 3.48 | L 4.48 | D 4.82 | P 4.23 | T 4.43 | I 4.48 | H 5 | E 4.69
H9: P 4.28 | A 3.57 | R 3.54 | G 3.52 | D 4.9 | T 3.71 | K 3.81 | F 3.78 | V 4.48 | W 3.34 | S 4.12 | C 4.02 | L 3.98 | E 4.61 | I 3.8 | M 3.59 | N 4.13
T3: N 2.66 | S 2.94 | Q 3.66 | V 3.12 | L 3.6 | D 4.99 | C 4.82 | G 3.69 | R 3.48 | W 2.77 | Y 3.54 | I 2.64 | H 4.45 | K 3.99 | P 4.61 | M 4.15 | E 4.59 | F 4.01
E19: C 2
L2: V 4.65 | S 4.6 | Y 3.66 | D 5.01 | E 4.71 | A 4.57 | K 4.8 | Q 5.16 | M 4.86 | R 4.33 | P 4.89 | W 4.53 | T 4.64 | I 3.1 | N 4.59 | H 4.58 | C 5.34 | F 3.89 | G 4.77
